Results on four molecules are retold here after publication PMC9404054, “Efficient screening for 8-oxoguanine DNA glycosylase binding aptamers via capillary electrophoresis”.

Series [1] concerns the target T1, 8-oxoguanine DNA glycosylase (OGG1) (UniProt O15527 1-345). The series can be described thus: capillary electrophoresis (NECEEM); 0.2 uM aptamer, 5.0 uM OGG1, n=3; abstract gives range 1.71-2.64 uM for the top three candidates; CE in fused-silica capillary (75 um i.d. x 50.2 cm, 40 cm effective); borate reagents listed; 15 min incubation stated for the selection; buffer composition, pH and temperature not in the material. To be noted: protein: commercial; (library is FAM labelled).

For series [2], the target named is T1, 8-oxoguanine DNA glycosylase (OGG1). The series can be described thus: capillary electrophoresis (NECEEM); 0.2 uM aptamer, 5.0 uM OGG1, n=3; CE in fused-silica capillary (75 um i.d. x 50.2 cm, 40 cm effective); borate reagents listed; 15 min incubation stated for the selection; buffer composition, pH and temperature not in the material. To be noted: protein: commercial; (library is FAM labelled).

T1 sequence (O15527 whole entry, the tested form may be a part): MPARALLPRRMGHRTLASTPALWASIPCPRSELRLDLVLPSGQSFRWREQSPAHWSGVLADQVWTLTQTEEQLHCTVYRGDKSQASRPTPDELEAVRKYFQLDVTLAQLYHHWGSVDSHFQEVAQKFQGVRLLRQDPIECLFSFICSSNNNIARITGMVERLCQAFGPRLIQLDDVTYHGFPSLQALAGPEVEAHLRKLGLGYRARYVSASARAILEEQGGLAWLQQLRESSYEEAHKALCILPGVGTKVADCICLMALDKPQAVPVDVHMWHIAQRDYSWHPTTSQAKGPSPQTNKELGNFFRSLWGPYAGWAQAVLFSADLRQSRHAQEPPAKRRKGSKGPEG

B1: OGG1-Apt 4 (ssDNA)
DNA: AGCAGCACAGAGGTCAGATGGCGAAGCGTACCGGCTACCCAGTGACAGTCGCCGTGGGTCCCTATGCGTGCTACCGTGAA
By Kd is commonly meant the constant that tells how readily two partners part at equilibrium. In series [1], B1 returned a Kd of 2800 ± 200 nM.

B2: OGG1-Apt 1 (ssDNA)
DNA: AGCAGCACAGAGGTCAGATGGCCACATTAGTCTCACCACTACCTGCGTACCTACCGCCGCCCTATGCGTGCTACCGTGAA
As to B2, in series [2], the dissociation constant (Kd) was 1700 ± 100 nM.

B3: OGG1-Apt 2 (ssDNA)
DNA: AGCAGCACAGAGGTCAGATGTTGATGGCAGGTATTGCTAGGTCTACATGGAACTTGTTAACCTATGCGTGCTACCGTGAA
In series [2], B3 gave a Kd of 2600 ± 200 nM. This Kd lies about 1.5-fold higher than the previous one.

B4: OGG1-Apt 6 (ssDNA)
DNA: AGCAGCACAGAGGTCAGATGCCGATCGTTGTTCCCGATCAAGATGGGGAATCTCAGTCGCCCTATGCGTGCTACCGTGAA
In the case of B4, in series [2], the equilibrium dissociation constant (Kd) was 1800 ± 100 nM.
